The results in this text go back to the supplement of paper PMC9170038.

The subject of this data set is MS2 coat protein. The experiment in a line: apparent KD of MS2 coat protein; designed switch direction (-1 OFF switch, 1 ON switch): -1; higher = weaker reporter binding. In a few lines: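 Designed RNA switches sharing common flanks were transcribed on Illumina chips by stalled E. coli RNA polymerase. They were titrated with SNAP-549-labelled MS2 coat protein, from 0.7 or 1.5 nM doubling to 3 µM, in Tris-HCl pH 7.5 buffer with KCl, MgCl2, BSA, DTT, tRNA and Tween-20. Titrations ran without input, with 200 uM small-molecule ligand, or with an oligonucleotide input. The apparent KD of each design is the median over its clusters, after curve-fitting of normalised cluster fluorescence.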

Setting [1] is: Eterna round: R95, input ligand: FMN 200 uM.
Where [2] appears, read: Eterna round: R95, input ligand: microRNA oligo, concentration not stated.
The mark [3] stands for this setting: Eterna round: R95, input ligand: none.
[4] abbreviates: input ligand: microRNA oligo, concentration not stated.

Consider “UGGAGAUAUAAGGAUAUAUUAGGAGGAGAGGAAAUAGAAGGUGUAACAUGAGGAUCACCCAUGUACCUCAUGUA [Default title] (Eterna round: R97, puzzle: Exclusion 6)”, for which the “apparent KD of MS2 coat protein” value is, setting by setting: (input ligand: FMN 200 uM) 693 nM; (input ligand: none) 985 nM.
Taken in the same sequence, the figures for “UGGGUCCAAGGAUAUACAUGAGGAUCACCCAUGUGAGAUUCGAUGCUGUGCCAAUUGUGUAGAAGGUGGCCACC [Eternabot (L2) Solution 32] (Eterna round: R97, puzzle: Exclusion 3)” were 45.3 nM and 44.1 nM.
Consider “UGGUAACAUGAGGAUCACCCAUGUCAGGAUAUCAUGAAGAGGAGAGGAGAGGAGAGGAUGAGAAGGGACUAUAU [Excluse me! 13 - Jieux - Exclusion 1] (puzzle: Exclusion 1)”, for which the “apparent KD of MS2 coat protein” value under setting [1] is 39 nM, the “apparent KD of MS2 coat protein” value under setting [2] was 30.4 nM and the “apparent KD of MS2 coat protein” value under setting [3] is 38.4 nM.
Consider “UGGUCACAUGAGGAUCACCCAUGUCAGGAUAUCGUCACUGGAGCUGCGGCUCCAGUGACGAGAAGGGACAUAAU [E1/6-A3] (Eterna round: R97, puzzle: Exclusion 1)”, for which the “apparent KD of MS2 coat protein” value turned out to be 162 nM (input ligand: FMN 200 uM) and 253 nM (input ligand: none).
Taken in the same sequence, the figures for “UGUAGUUCAGGAUAUGAUGUAUAAUACAUGAGGAUCACCCAUGUAGAUCCUGAAUUUACAUCAGAAGGGAAUAUUU [JL-ex5-4.58 Brourd mod] (Eterna round: R97, puzzle: Exclusion 5)” were 20.4 nM and 15.4 nM.
For the sequence “UGUAUUAGGUCAGGAUAUACAUGAGGAUCACCCAUGUACAUGGAGCGAGUACAGUAUCAUGCAAGGUAGAAGGGACAGUCGACG [success! :D] (Eterna round: R96, puzzle: Exclusion NG 2)”, the “apparent KD of MS2 coat protein” value by setting is: (input ligand: FMN 200 uM) 21.6 nM; under setting [4], 15.7 nM; (input ligand: none) 24.3 nM.
For “UGUCUACAUGAGGAUCACCCAUGUCAGGAUAUGCUCGAUAUAUGGAAACAUAUAUCGAGCAGAAGGGACUAGCG [Jieuxxlusion 5 - Jieux - Exclusion 1] (Eterna round: R97, puzzle: Exclusion 1)”, the “apparent KD of MS2 coat protein” value (input ligand: FMN 200 uM) is 53.5 nM and the “apparent KD of MS2 coat protein” value (input ligand: none) was determined as 28.4 nM.
As for “UGUGGAGCUUAGGAUAUUGCUCUACCAAGAGGGCGAGAAGGGAGCACAUGAGGAUCACCCAUGUGGUCCGGAAC [Edoroner] (puzzle: Exclusion 6)”, the “apparent KD of MS2 coat protein” value is, setting by setting: under setting [1], 26 nM; under setting [2], 14.7 nM; under setting [3], 14.6 nM.
Turning to “UGUGUGAGACAGGAUAUGCCGGAUGUAUUACUGGUAGAAGGGUCUACAUGAGGAUCACCCAUGUGGCCGGCCGG [Ex6 #83] (Eterna round: R97, puzzle: Exclusion 6)”, the “apparent KD of MS2 coat protein” value reads like this: (input ligand: FMN 200 uM) 31.3 nM; (input ligand: none) 21.1 nM.
The corresponding values for “UGUGUGUCAGGAUAUAGUUCGAGUUCGGAAAUGAGCUUGAGCUAGAAGGGACAUGAGGAUCACCCAUGUGCACG [-26.3, -25.3 kcal, A 27%, 1-(ca)1] (Eterna round: R97, puzzle: Exclusion 4)” are 148 nM and 83.6 nM.
As for “UGUUCGGUAGGAUAUACAUCGCUGAAGUGGCGGUGACUUCAACAUGAGGAUCACCCAUGUAGAAGGGCCGGCUC [EX2 C.4] (Eterna round: R97, puzzle: Exclusion 2)”, the “apparent KD of MS2 coat protein” value by setting is: (input ligand: FMN 200 uM) 17.3 nM; (input ligand: none) 16.5 nM.
Consider “UGUUGUCGCGCAGGAUAUGCAUGAGGAUCACCCAUGCAAUUAGAGUUAACAUGAGGAUCACCCAUGUAGAAGGGCGGGACAACU [pwkr exNG2 2xF5 1xFMN.5] (Eterna round: R96, puzzle: Exclusion NG 2)”, for which the “apparent KD of MS2 coat protein” value (input ligand: FMN 200 uM) worked out at 65.1 nM, the “apparent KD of MS2 coat protein” value under setting [4] was determined as 27.6 nM and the “apparent KD of MS2 coat protein” value (input ligand: none) was 54.2 nM.
As for “UGUUGUCGCGUAGGAUAUGGCCAACAGGCCCUAGGAUAUCGGAAACGAGAAGGAGCGCCAACAGGCGAGAAGGACGGGACAACU [pwkr exNG2 2xF7 2xFMN.20] (Eterna round: R96, puzzle: Exclusion NG 2)”, the “apparent KD of MS2 coat protein” value runs as follows: (input ligand: FMN 200 uM) 33 nM; under setting [4], 52.7 nM; (input ligand: none) 10.7 nM.
As for “UGUUGUUACGCAGGAUAUGGCCAACAGGCCCUAGGAUAUCCGAAAGGAGAAGGAGCGCCAACAGGCGAGAAGGGCGGGUUAACA [pwkr exNG2 2xF7 2xFMN.14] (Eterna round: R96, puzzle: Exclusion NG 2)”, the “apparent KD of MS2 coat protein” value is, setting by setting: (input ligand: FMN 200 uM) 201 nM; under setting [4], 55.7 nM; (input ligand: none) 140 nM.
Taken in the same sequence, the figures for “UGUUGUUACGCAGGAUAUGUAUGAGGAUCACCCAUAAGAGUAUAUUUACCAUGAGGAUCACCCAUGUAGAAGGGCGGGUUAACA [pwkr exNG2 2xF5 1xFMN.10] (Eterna round: R96, puzzle: Exclusion NG 2)” were 224 nM, 109 nM and 144 nM.
Regarding “UGUUUACAUGAGGAUCACCCAUGUCAGGAUAUGAUCGAUAUAUGGAAACAUAUAUCGAUCAGAAGGGACUAGUG [Jieuxxlusion 2 - Jieux - Exclusion 1] (Eterna round: R97, puzzle: Exclusion 1)”, the “apparent KD of MS2 coat protein” value reads like this: (input ligand: FMN 200 uM) 88.2 nM; (input ligand: none) 82.6 nM.
As for “UUAAAUCAUGUAGGAUAUGCGUGGCGAAGCUAUGCAGAAGGACAUGAGGAUCACCCAUGUGCUUCCGUCUGCGUACAGACGGUA [JL ENG1 1.14] (Eterna round: R96, puzzle: Exclusion NG 1)”, the “apparent KD of MS2 coat protein” value is 258 nM (input ligand: FMN 200 uM), 79.2 nM under setting [4] and 91.2 nM (input ligand: none).
On to “UUAAAUCAUGUAGGAUAUGCGUGGCGAAGCUAUGCAGAAGGACAUGAGGAUCACCCAUGUUCUGCGGUCUGCGUACAGAUCGCU [JL ENG1 1.04] (Eterna round: R96, puzzle: Exclusion NG 1)”, for which the “apparent KD of MS2 coat protein” value under setting [4] was found to be 14.9 nM.
On to “UUAACGUCAGGAUAUGCAUAAUAUAUUAUAUUAUAAUAUAUACAUGAGGAUCACCCAUGUAGAAGGGACAUUAU [LRO-Excl2-01-Fireball XL5] (Eterna round: R97, puzzle: Exclusion 2)”, for which the “apparent KD of MS2 coat protein” value was determined as 42.7 nM (input ligand: FMN 200 uM) and 29.8 nM (input ligand: none).
For “UUAAUUAAUAAUUAAGAUCAUUACAUGAGGAUCACCCAUGUCGAGGAUAUCAGCUCGUGUAGAGCUGAGAAGGCGACAAAUUAU [ExNG3/13-B3] (Eterna round: R96, puzzle: Exclusion NG 3)”, the “apparent KD of MS2 coat protein” value runs as follows: (input ligand: FMN 200 uM) 586 nM; under setting [4], 268 nM; (input ligand: none) 633 nM.
Taken in the same sequence, the figures for “UUAGAAUUGUUAGGAUAUUAAUUAUUGUUUAGUAUGAUCUACAUGAGGAUCACCCAUGUUAAAUAUAAGAAGGAACGUUAGAUU [JR_ExcNG2_Sub095] (Eterna round: R96, puzzle: Exclusion NG 2)” were 43.7 nM, 35.6 nM and 51.3 nM.
For “UUAGCUCAAGUCAGGAUAUUAGAGGCUUGCCUAAAUAAGAAGGGACAUGAGGAUCACCCAUGUCUAUGCAUGUA [BmEX4 A.16] (Eterna round: R97, puzzle: Brourd's mod of Exclusion 4)”, the “apparent KD of MS2 coat protein” value reads like this: (input ligand: FMN 200 uM) 21.5 nM; (input ligand: none) 15.9 nM.
Take “UUAGGAUCAGGAUAUGAUGUUUUUUACAUGAGGAUCACCCAUGUUGAUCCUGAUUCAACAUCAGAAGGGAUAAUUU [JR_Ex5_Sub081] (Eterna round: R97, puzzle: Exclusion 5)”: the “apparent KD of MS2 coat protein” value is, setting by setting: (input ligand: FMN 200 uM) 85.2 nM; (input ligand: none) 21.4 nM.
With “UUAGUGUUAGGAUAUCCGGCUCCAAGGCACCAAAACCGGGCGGAGAAGGAACAUGAGGAUCACCCAUGUGACCA [Eternabot (Original) Solution 31] (Eterna round: R97, puzzle: Exclusion 4)”, the “apparent KD of MS2 coat protein” value by setting is: (input ligand: FMN 200 uM) 53.7 nM; (input ligand: none) 49.1 nM.
For the sequence “UUAUAAAGUGUGAGGAUAUGCUGGUCGAUAGAUCAGCAGAAGGCACAUGAGGAUCACCCAUGUAAUAUAUUUUA [Mat - Exclusion 4 - JL Mod - D45] (puzzle: Brourd's mod of Exclusion 4)”, the “apparent KD of MS2 coat protein” value under setting [2] was 50 nM.
Same read-out and setting: the result for “UUAUACGUUGAGGAUAUGCGACUUAGUAUAGUUGUAGAAGGCGAUACAUGAGGAUCACCCAUGUUUAUGGGCAU [LRO-Ex6-09] (puzzle: Exclusion 6)” reads 227 nM.
“UUAUUAGCAGGAUAUAUCCAGGAUUACAUGAGGAUCACCCAUGUGGCCGCUUGAAAUUCUAUAGAAGGGCUUUAUU [Mod of ViennaUCT 36 - Jieux - Exclusion 5] (Eterna round: R97, puzzle: Exclusion 5)”: the “apparent KD of MS2 coat protein” value reads like this: (input ligand: FMN 200 uM) 52.7 nM; (input ligand: none) 45.8 nM.
In the case of “UUAUUAUAUGUAGGAUAUGCAUAUUGUUGUUAUGCAGAAGGACAUGAGGAUCACCCAUGUGUAUUAUUGUUAUAUAUUAUAUAU [Title] (Eterna round: R96, puzzle: Exclusion NG 1)”, the “apparent KD of MS2 coat protein” value under setting [4] came out at 16.5 nM.
In the case of “UUAUUAUAUGUAGGAUAUGCGUAUUAUUGUUAUGCAGAAGGACAUGAGGAUCACCCAUGUAUAUUAUUGUUAUAUAUUGUAUAU [Title] (Eterna round: R96, puzzle: Exclusion NG 1)”, the “apparent KD of MS2 coat protein” value (input ligand: FMN 200 uM) came out at 28.9 nM, the “apparent KD of MS2 coat protein” value under setting [4] worked out at 19.8 nM and the “apparent KD of MS2 coat protein” value (input ligand: none) was found to be 21.7 nM.
Regarding “UUAUUAUGUGUAGGAUAUGCAUAUUAUUAUUAUGCAGAAGGACAUGAGGAUCACCCAUGUAUAUUAUUAUUAUAUAUUAUAUAU [Title] (Eterna round: R96, puzzle: Exclusion NG 1)”, the “apparent KD of MS2 coat protein” value under setting [4] stood at 25.1 nM.
